Drawing on patent US20190309072A1 (published 2019), this text covers Kd for 15 molecules.

The chains are these.
T1: human ITGa3 protein (human, UniProt P26006 33-991)
T1 chain: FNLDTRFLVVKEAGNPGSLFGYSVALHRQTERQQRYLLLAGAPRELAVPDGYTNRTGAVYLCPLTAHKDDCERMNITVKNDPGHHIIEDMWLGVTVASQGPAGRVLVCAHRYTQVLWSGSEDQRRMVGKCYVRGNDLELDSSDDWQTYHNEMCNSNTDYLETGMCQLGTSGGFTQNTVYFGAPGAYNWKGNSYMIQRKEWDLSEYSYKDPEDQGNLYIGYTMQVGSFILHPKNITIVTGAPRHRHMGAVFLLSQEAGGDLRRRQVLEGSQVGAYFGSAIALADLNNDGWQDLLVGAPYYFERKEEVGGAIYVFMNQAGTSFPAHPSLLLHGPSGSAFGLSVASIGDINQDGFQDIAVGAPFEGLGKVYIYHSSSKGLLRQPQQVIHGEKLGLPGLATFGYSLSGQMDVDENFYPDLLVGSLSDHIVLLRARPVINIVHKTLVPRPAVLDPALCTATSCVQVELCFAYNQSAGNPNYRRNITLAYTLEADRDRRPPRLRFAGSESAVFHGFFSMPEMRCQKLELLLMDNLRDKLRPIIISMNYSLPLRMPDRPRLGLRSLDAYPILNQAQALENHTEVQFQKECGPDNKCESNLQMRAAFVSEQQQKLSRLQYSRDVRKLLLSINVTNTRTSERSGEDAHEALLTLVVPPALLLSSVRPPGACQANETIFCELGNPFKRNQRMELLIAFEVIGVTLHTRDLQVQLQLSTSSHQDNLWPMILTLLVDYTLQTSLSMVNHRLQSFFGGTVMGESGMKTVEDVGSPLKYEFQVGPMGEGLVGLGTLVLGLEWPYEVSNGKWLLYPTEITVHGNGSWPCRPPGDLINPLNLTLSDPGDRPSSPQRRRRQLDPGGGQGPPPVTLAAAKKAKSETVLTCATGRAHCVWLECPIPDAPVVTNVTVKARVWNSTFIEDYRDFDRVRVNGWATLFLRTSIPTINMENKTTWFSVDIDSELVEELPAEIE

B1: ITGa3-VM2 (antibody, V domains shown)
VH: EVQLQESGAELVKPGTSVRLSCKASGYTFTEYIIHWVKQRSGQGLEWIGWFYPESGSVKYNETFKGRATLTADKSSSTVYMELSRLTSEDSAVYFCARHEERDYYGYYAMDYWGQGTSVTVSS
VL: DIVMTQTPTTLAASPGEKIIITCSASSSISSNYLHWYQQKPGFSPKLLIYRTSNLASGVPARFSGSGSGTSYSLTIGTMEAEDVATYYCQQGSSIPRFTSGSGTKLEIK
B2: Lc1/Hc1S (VH of SEQ ID NO: 4 and VL of SEQ ID NO: 12) (antibody, V domains shown)
VH: QVQLVQSGAEVKKPGSSVKVSCKASGYTFTEYIIHWVRQAPGQGLEWIGWFYPESGSVKYSETFKGRATLTADKSTSTAYMELSSLRSEDTAVYYCARHEERDYYGYYAMDYWGQGTTVTVSS
VL: DIQMTQSPSSLSASVGDRVIITCSASSSISSNYLHWYQQKPGKVPKLLIYRTSNLASGVPSRFSGSGSGTDYTLTISSLQPEDVATYYCQQGSSIPRFTSGGGTKVEIK
B3: Lc1/Hc1S (antibody, V domains shown)
VH: QVQLVQSGAEVKKPGSSVKVSCKASGYTFTEYIIHWVRQAPGQGLEWIGWFYPESGSVKYSETFKGRATLTADKSTSTAYMELSSLRSEDTAVYYCARHEERDYYGYYAMDYWGQGTTVTVSS
VL: DIQMTQSPSSLSASVGDRVTITCSASSSISSNYLHWYQQKPGKVPKLLIYRTSNLASGVPSRFSGSGSGTDYTLTISSLQPEDVATYYCQQGSSIPRFTSGGGTKVEIK
B4: Lc2/Hc1 (antibody, V domains shown)
VH: QVQLVQSGAEVKKPGSSVKVSCKASGYTFTEYIIHWVRQAPGQGLEWIGWFYPESGSVKYNETFKGRATLTADKSTSTAYMELSSLRSEDTAVYYCARHEERDYYGYYAMDYWGQGTTVTVSS
VL: DIQMTQSPSSLSASVGDRVIITCSASSSISSNYLHWYQQKPGKVPKLLIYRTSNLASGVPSRFSGSGSGTDYTLTISSLQPEDVATYYCQQGSSIPRFTSGGGTKVEIK
B5: Lc1/Hc1A (antibody, V domains shown)
VH: QVQLVQSGAEVKKPGSSVKVSCKASGYTFTEYIIHWVRQAPGQGLEWIGWFYPESGSVKYNEAFKGRATLTADKSTSTAYMELSSLRSEDTAVYYCARHEERDYYGYYAMDYWGQGTTVTVSS
VL: DIQMTQSPSSLSASVGDRVTITCSASSSISSNYLHWYQQKPGKVPKLLIYRTSNLASGVPSRFSGSGSGTDYTLTISSLQPEDVATYYCQQGSSIPRFTSGGGTKVEIK
B6: Lc2/Hc2S (antibody, V domains shown)
VH: QVQLVQSGAEVKKPGSSVKVSCKASGYTFTEYIIHWVRQAPGQGLEWIGWFYPESGSVKYSETFKGRATITADKSTSTAYMELSSLRSEDTAVYYCARHEERDYYGYYAMDYWGQGTTVTVSS
VL: DIQMTQSPSSLSASVGDRVIITCSASSSISSNYLHWYQQKPGKVPKLLIYRTSNLASGVPSRFSGSGSGTDYTLTISSLQPEDVATYYCQQGSSIPRFTSGGGTKVEIK
B7: Lc2/Hc2A (antibody, V domains shown)
VH: QVQLVQSGAEVKKPGSSVKVSCKASGYTFTEYIIHWVRQAPGQGLEWIGWFYPESGSVKYNEAFKGRATITADKSTSTAYMELSSLRSEDTAVYYCARHEERDYYGYYAMDYWGQGTTVTVSS
VL: DIQMTQSPSSLSASVGDRVIITCSASSSISSNYLHWYQQKPGKVPKLLIYRTSNLASGVPSRFSGSGSGTDYTLTISSLQPEDVATYYCQQGSSIPRFTSGGGTKVEIK
B8: Lc2/Hc2G (antibody, V domains shown)
VH: QVQLVQSGAEVKKPGSSVKVSCKASGYTFTEYIIHWVRQAPGQGLEWIGWFYPESGSVKYNEGFKGRATITADKSTSTAYMELSSLRSEDTAVYYCARHEERDYYGYYAMDYWGQGTTVTVSS
VL: DIQMTQSPSSLSASVGDRVIITCSASSSISSNYLHWYQQKPGKVPKLLIYRTSNLASGVPSRFSGSGSGTDYTLTISSLQPEDVATYYCQQGSSIPRFTSGGGTKVEIK
B9: Lc1/Hc2 (antibody, V domains shown)
VH: QVQLVQSGAEVKKPGSSVKVSCKASGYTFTEYIIHWVRQAPGQGLEWIGWFYPESGSVKYNETFKGRATITADKSTSTAYMELSSLRSEDTAVYYCARHEERDYYGYYAMDYWGQGTTVTVSS
VL: DIQMTQSPSSLSASVGDRVTITCSASSSISSNYLHWYQQKPGKVPKLLIYRTSNLASGVPSRFSGSGSGTDYTLTISSLQPEDVATYYCQQGSSIPRFTSGGGTKVEIK
B10: Lc1/Hc1 (antibody, V domains shown)
VH: QVQLVQSGAEVKKPGSSVKVSCKASGYTFTEYIIHWVRQAPGQGLEWIGWFYPESGSVKYNETFKGRATLTADKSTSTAYMELSSLRSEDTAVYYCARHEERDYYGYYAMDYWGQGTTVTVSS
VL: DIQMTQSPSSLSASVGDRVTITCSASSSISSNYLHWYQQKPGKVPKLLIYRTSNLASGVPSRFSGSGSGTDYTLTISSLQPEDVATYYCQQGSSIPRFTSGGGTKVEIK
B11: Lc2/Hc2 (antibody, V domains shown)
VH: QVQLVQSGAEVKKPGSSVKVSCKASGYTFTEYIIHWVRQAPGQGLEWIGWFYPESGSVKYNETFKGRATITADKSTSTAYMELSSLRSEDTAVYYCARHEERDYYGYYAMDYWGQGTTVTVSS
VL: DIQMTQSPSSLSASVGDRVIITCSASSSISSNYLHWYQQKPGKVPKLLIYRTSNLASGVPSRFSGSGSGTDYTLTISSLQPEDVATYYCQQGSSIPRFTSGGGTKVEIK
B12: Lc2/Hc1A (antibody, V domains shown)
VH: QVQLVQSGAEVKKPGSSVKVSCKASGYTFTEYIIHWVRQAPGQGLEWIGWFYPESGSVKYNEAFKGRATLTADKSTSTAYMELSSLRSEDTAVYYCARHEERDYYGYYAMDYWGQGTTVTVSS
VL: DIQMTQSPSSLSASVGDRVIITCSASSSISSNYLHWYQQKPGKVPKLLIYRTSNLASGVPSRFSGSGSGTDYTLTISSLQPEDVATYYCQQGSSIPRFTSGGGTKVEIK
B13: Lc1/Hc2A (antibody, V domains shown)
VH: QVQLVQSGAEVKKPGSSVKVSCKASGYTFTEYIIHWVRQAPGQGLEWIGWFYPESGSVKYNEAFKGRATITADKSTSTAYMELSSLRSEDTAVYYCARHEERDYYGYYAMDYWGQGTTVTVSS
VL: DIQMTQSPSSLSASVGDRVTITCSASSSISSNYLHWYQQKPGKVPKLLIYRTSNLASGVPSRFSGSGSGTDYTLTISSLQPEDVATYYCQQGSSIPRFTSGGGTKVEIK
B14: Lc1/Hc1G (antibody, V domains shown)
VH: QVQLVQSGAEVKKPGSSVKVSCKASGYTFTEYIIHWVRQAPGQGLEWIGWFYPESGSVKYNEGFKGRATLTADKSTSTAYMELSSLRSEDTAVYYCARHEERDYYGYYAMDYWGQGTTVTVSS
VL: DIQMTQSPSSLSASVGDRVTITCSASSSISSNYLHWYQQKPGKVPKLLIYRTSNLASGVPSRFSGSGSGTDYTLTISSLQPEDVATYYCQQGSSIPRFTSGGGTKVEIK
B15: Lc1/Hc2S (antibody, V domains shown)
VH: QVQLVQSGAEVKKPGSSVKVSCKASGYTFTEYIIHWVRQAPGQGLEWIGWFYPESGSVKYSETFKGRATITADKSTSTAYMELSSLRSEDTAVYYCARHEERDYYGYYAMDYWGQGTTVTVSS
VL: DIQMTQSPSSLSASVGDRVTITCSASSSISSNYLHWYQQKPGKVPKLLIYRTSNLASGVPSRFSGSGSGTDYTLTISSLQPEDVATYYCQQGSSIPRFTSGGGTKVEIK

The target in the test is T1, human ITGa3 protein. Briefly: ELISA; apparent Kd.
For the molecule B1, the Kd came to 0.23 nM.

Take B2: the Kd is 0.18 nM.

As for B3, the Kd was 0.18 nM.

Take B4: the Kd came to 0.18 nM.

Consider B5, for which the Kd worked out at 0.32 nM.

As to B6, the Kd was 0.24 nM.

In the case of B7, the Kd was found to be 0.24 nM.

Take B8: the Kd is 0.18 nM.

Regarding B9, the Kd turned out to be 0.07 nM.

With B10, the Kd is 0.18 nM.

B11: the Kd worked out at 0.1 nM.

Regarding B12, the Kd is 0.23 nM.

For B13, the Kd came out at 0.27 nM.

Turning to B14, the Kd was 0.23 nM.

With B15, the Kd is 0.32 nM.
